Measured values from the RNAGym collection of RNA variant scans (doi:10.1101/gr.219683.116).

B1: mRNA-splicing (parent)
chain: AGUUGCUGCUGGGAGCUCCAGCACAGUGAAAUGGACAGAAGGGCAGAGCAA

Variants of: B1
Assay: exon inclusion enrichment index; higher = more inclusion; WT1 exon 5 minigene, HEK293

Going from AGUUACCACCGGGAGCUCCAGCACUCUGAAAUGGACAGAAGGGCAGAGCAA [G5A U7C G8A U10C A25U G26C] to AGUUAUCACAGGGAGCUCCAGCACAGUGAAAUGGACAGAAGGGCAGAGCAA [G5A C6U U7C G8A U10A], the “exon inclusion enrichment index” value falls from 2.25 to 0.0761.

Going from AGUUAUCACCGGGAGCUCCAGCACAGUGAAAUGGACAGAAGGGCAGAGCAA [G5A C6U U7C G8A U10C] to AGUUACUCUCGGGAGCUCCAGCACAGUGAAAUGGACAGAAGGGCAGAGCAA [G5A G8C C9U U10C], the “exon inclusion enrichment index” value falls from 2.02 to 1.05.

First: AGUUACACCCGGGAGCUCCAGCACAGUGAAAUGGACAGAAGGGCAGAGCAA [G5A U7A G8C U10C]
Second: AGUUACCGGCGGGAGCUCCAGCACAGUGAAAUGGACAGAAGGGCAGAGCAA [G5A U7C C9G U10C]
The “exon inclusion enrichment index” value of the first is lower: 1.42 for the first, 2.65 for the second.

Compared with AGUUAUGGAUGGGAGCUCCAGCACAGUGAAAUGGACAGAAGGGCAGAGCAA [G5A C6U U7G C9A], AGUUACUCCCGGGAGCUCCAGCACAGUGAAAUGGACAGAAGGGCAGAGCAA [G5A G8C U10C] is higher in “exon inclusion enrichment index” value: 0.561 for the first, 1.52 for the second.

First: AGUUACCAGGGGGAGCUCCAGCACAGUGAAAUGGACAGAAGGGCAGAGCAA [G5A U7C G8A C9G U10G]
Second: AGUUACCAGAGGGAGCUCCAGCACAGUGAAAUGGACAGAAGGGCAGAGCAA [G5A U7C G8A C9G U10A]
The “exon inclusion enrichment index” value of the first is lower: 0.236 for the first, 0.989 for the second.

First: AGUUACCAGCGGGAGCUCCAGCACAGUGAAAUGGACAGAAGGGCAGAGCAA [G5A U7C G8A C9G U10C]
Second: AGUUAUCGACGGGAGCUCCAGCACAGUGAAAUGGACAGAAGGGCAGAGCAA [G5A C6U U7C C9A U10C]
The “exon inclusion enrichment index” value of the first is lower: 1.65 for the first, 2.91 for the second.

Compared with AGUUACCGAUGGGAGCUCCAGCACAGUGAAAUGGACAGAAGGGCAGAGCAA [G5A U7C C9A], AGUUACCGACGGGAGCUCCAGCACAGUGAAAUGGACAGAAGGGCAGAGCAA [G5A U7C C9A U10C] is higher in “exon inclusion enrichment index” value: 2.07 for the first, 2.95 for the second.

Compared with AGUUACUGAUGGGAGCUCCAGCACAGUGAAAUGGACAGAAGGGCAGAGCAA [G5A C9A], AGUUACAGAUGGGAGCUCCAGCACAGUGAAAUGGACAGAAGGGCAGAGCAA [G5A U7A C9A] is lower in “exon inclusion enrichment index” value: 0.851 for the first, 0.664 for the second.

Compared with AGUUACUACCGGGAGCUCCAGCACAGUGAAAUGGACAGAAGGGCAGAGCAA [G5A G8A U10C], AGUUACCACCGGGGCCUCCAGCACAGUGAAAUGGACAGAAGGGCAGAGCAA [G5A U7C G8A U10C A14G G15C] is lower in “exon inclusion enrichment index” value: 1.77 for the first, 1.06 for the second.

Compared with AGUUACCACCGGGGUCUCCAGCACAGUGAAAUGGACAGAAGGGCAGAGCAA [G5A U7C G8A U10C A14G G15U], AGUUACCACCGGGGACUCCAGCACAGUGAAAUGGACAGAAGGGCAGAGCAA [G5A U7C G8A U10C A14G G15A] is higher in “exon inclusion enrichment index” value: 0.925 for the first, 1.8 for the second.

Going from AGUUACCACCGGGAGCUCCAGCUCAGUGAAAUGGACAGAAGGGCAGAGCAA [G5A U7C G8A U10C A23U] to AGUUACCACCGGGAGCUCCAGCGCAGUGAAAUGGACAGAAGGGCAGAGCAA [G5A U7C G8A U10C A23G], the “exon inclusion enrichment index” value rises from 1.81 to 3.56.

Going from AGUUACCACCGGGAGCUCCAGCCCAGUGAAAUGGACAGAAGGGCAGAGCAA [G5A U7C G8A U10C A23C] to AGUUACAGAAGGGAGCUCCAGCACAGUGAAAUGGACAGAAGGGCAGAGCAA [G5A U7A C9A U10A], the “exon inclusion enrichment index” value falls from 1.89 to 0.318.

Going from AGUUAUGCAUGGGAGCUCCAGCACAGUGAAAUGGACAGAAGGGCAGAGCAA [G5A C6U U7G G8C C9A] to AGUUAUGUAUGGGAGCUCCAGCACAGUGAAAUGGACAGAAGGGCAGAGCAA [G5A C6U U7G G8U C9A], the “exon inclusion enrichment index” value falls from 0.407 to 0.144.

First: AGUUACCACCGGGAGCUCCAGCGAAGUGAAAUGGACAGAAGGGCAGAGCAA [G5A U7C G8A U10C A23G C24A]
Second: AGUUACCACCGGGAGCUCCAGCGUAGUGAAAUGGACAGAAGGGCAGAGCAA [G5A U7C G8A U10C A23G C24U]
The “exon inclusion enrichment index” value of the first is higher: 3.5 for the first, 0.823 for the second.

First: AGUUACCACCGGGAGCUCCAGCGGAGUGAAAUGGACAGAAGGGCAGAGCAA [G5A U7C G8A U10C A23G C24G]
Second: AGUUACAUCCGGGAGCUCCAGCACAGUGAAAUGGACAGAAGGGCAGAGCAA [G5A U7A G8U U10C]
The “exon inclusion enrichment index” value of the first is higher: 3.83 for the first, 1.96 for the second.

Going from AGUUACCAACGGGAGCUCCAGCACAGUGAAAUGGACAGAAGGGCAGAGCAA [G5A U7C G8A C9A U10C] to AGUUACCAAGGGGAGCUCCAGCACAGUGAAAUGGACAGAAGGGCAGAGCAA [G5A U7C G8A C9A U10G], the “exon inclusion enrichment index” value falls from 2 to 0.509.

Going from AGUUACCAAAGGGAGCUCCAGCACAGUGAAAUGGACAGAAGGGCAGAGCAA [G5A U7C G8A C9A U10A] to AGUUAUCCAUGGGAGCUCCAGCACAGUGAAAUGGACAGAAGGGCAGAGCAA [G5A C6U U7C G8C C9A], the “exon inclusion enrichment index” value rises from 0.384 to 1.04.

Compared with AGUUACAGCCGGGAGCUCCAGCACAGUGAAAUGGACAGAAGGGCAGAGCAA [G5A U7A U10C], AGUUAUGACCGGGAGCUCCAGCACAGUGAAAUGGACAGAAGGGCAGAGCAA [G5A C6U U7G G8A U10C] is higher in “exon inclusion enrichment index” value: 1.84 for the first, 1.97 for the second.

First: AGUUACCACUCGGAGCUCCAGCACAGUGAAAUGGACAGAAGGGCAGAGCAA [G5A U7C G8A G11C]
Second: AGUUACCACUUGGAGCUCCAGCACAGUGAAAUGGACAGAAGGGCAGAGCAA [G5A U7C G8A G11U]
The “exon inclusion enrichment index” value of the first is higher: 1.3 for the first, 1.23 for the second.

First: AGUUACCACUAGGAGCUCCAGCACAGUGAAAUGGACAGAAGGGCAGAGCAA [G5A U7C G8A G11A]
Second: AGUUACCACCGGGAGCUCCAGCACGCUGAAAUGGACAGAAGGGCAGAGCAA [G5A U7C G8A U10C A25G G26C]
The “exon inclusion enrichment index” value of the first is lower: 0.186 for the first, 3.84 for the second.

First: AGUUACCACCGGGAGCUCCAGCACGAUGAAAUGGACAGAAGGGCAGAGCAA [G5A U7C G8A U10C A25G G26A]
Second: AGUUACCACCGGGAGCUCCAGCACGUUGAAAUGGACAGAAGGGCAGAGCAA [G5A U7C G8A U10C A25G G26U]
The “exon inclusion enrichment index” value of the first is higher: 4.73 for the first, 3.09 for the second.

Going from AGUUACUUAUGGGAGCUCCAGCACAGUGAAAUGGACAGAAGGGCAGAGCAA [G5A G8U C9A] to AGUUACUUUUGGGAGCUCCAGCACAGUGAAAUGGACAGAAGGGCAGAGCAA [G5A G8U C9U], the “exon inclusion enrichment index” value falls from 0.187 to 0.166.

First: AGUUACCACCGGGAGCUCCAGCACAGUGAAAUGGACAGAAGGGCAGAGCAA [G5A U7C G8A U10C]
Second: AGUUACCACAGGGAGCUCCAGCACAGUGAAAUGGACAGAAGGGCAGAGCAA [G5A U7C G8A U10A]
The “exon inclusion enrichment index” value of the first is higher: 2.53 for the first, 0.253 for the second.

Compared with AGUUACAACCGGGAGCUCCAGCACAGUGAAAUGGACAGAAGGGCAGAGCAA [G5A U7A G8A U10C], AGUUAUCAAUGGGAGCUCCAGCACAGUGAAAUGGACAGAAGGGCAGAGCAA [G5A C6U U7C G8A C9A] is lower in “exon inclusion enrichment index” value: 1.72 for the first, 0.442 for the second.

First: AGUUACCACCGGGAGCUCCUCCACAGUGAAAUGGACAGAAGGGCAGAGCAA [G5A U7C G8A U10C A20U G21C]
Second: AGUUACCACCGGGAGCUCCUACACAGUGAAAUGGACAGAAGGGCAGAGCAA [G5A U7C G8A U10C A20U G21A]
The “exon inclusion enrichment index” value of the first is higher: 2.33 for the first, 1.36 for the second.

With AGUUACCACCGGGAGCUCCUUCACAGUGAAAUGGACAGAAGGGCAGAGCAA [G5A U7C G8A U10C A20U G21U] the “exon inclusion enrichment index” value was 1.69.
